One substance from PMC4456216 can be followed below.

Assay in all cases: ITC
In general terms: In ITC the heat of successive injections is recorded.

The target in test [1] is BMAL1 TAD S605N L606Y (mouse).
For test [2], the target named is BMAL1 transactivation domain (TAD), residues 579-626 (mouse).
Test [3] has as its target BMAL1 TAD V602A I603F (mouse).

Sequence of mouse CBP KIX domain (P45481 586-665): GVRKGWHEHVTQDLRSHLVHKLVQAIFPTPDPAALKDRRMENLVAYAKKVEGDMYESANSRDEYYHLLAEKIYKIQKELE

“mouse CBP KIX domain (from UniProt P45481 586-665) (domain or fragment)”: the stoichiometry N stood at 1.06 in test [1], 0.74 in test [2] and 0.82 in test [3].

What is called stoichiometry N is a count of units in the complex or per binding partner.
